The target in assay [1] is T1, Myristoyl-CoA:protein N-myristoyltransferase from Saccharomyces cerevisiae (Saccharomyces cerevisiae, UniProt P14743).
T1 sequence (P14743 1-455): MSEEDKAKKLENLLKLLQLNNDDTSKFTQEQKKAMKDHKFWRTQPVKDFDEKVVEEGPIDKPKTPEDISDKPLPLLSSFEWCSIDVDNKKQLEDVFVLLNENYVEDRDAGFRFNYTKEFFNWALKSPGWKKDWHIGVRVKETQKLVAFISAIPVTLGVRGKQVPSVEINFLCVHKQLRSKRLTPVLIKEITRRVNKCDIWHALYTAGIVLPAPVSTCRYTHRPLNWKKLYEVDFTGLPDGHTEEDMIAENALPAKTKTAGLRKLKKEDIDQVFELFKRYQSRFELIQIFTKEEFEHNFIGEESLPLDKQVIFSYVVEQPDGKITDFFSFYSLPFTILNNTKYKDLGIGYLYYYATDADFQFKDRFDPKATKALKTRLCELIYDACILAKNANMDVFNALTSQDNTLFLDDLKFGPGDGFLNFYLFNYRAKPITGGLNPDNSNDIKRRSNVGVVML
Put plainly: kinetic measurements of substrate specificity of yeast NMT with octapeptides. Type of assay: biochemical. To be noted: ratio of the Km, Rocque et al. 1993 data. An excerpt: The enzyme Myristoyl-CoA:protein N-myristoyltransferase from Saccharomyces cerevisiae has been subject to extensive kinetic measurements to examine its substrate specificity (Towler, D. A., et al., Annu. Rev. Biochem. 57:69-99 (1988)). […] However, the relation of the affinities, certifying which substrates are binding better than others, should remain constant.

The target of assay [2] is T1, Myristoyl-CoA:protein N-myristoyltransferase from Saccharomyces cerevisiae. To be noted: cited from earlier work; for Km: octapeptide substrate.
The mark [3] stands for this setting: earlier publication, Towler et al. 1988.

Where two headings read alike, the source gives them in different places.

Usually Km stands for the concentration of substrate that gives half-maximal velocity. Consider “GNAAAARR [octapeptide substrate of yeast NMT, derived from cAMP-dependent protein kinase]”, for which the “higher affinity (lower Km) than GSSKSKPK” value in assay [1] was 3 fold. For the same sequence, the Km in assay [2] (Rocque et al. 1993) was 31 µM; in assay [2] (setting [3]), 60 µM.
Turning to “GPAAAARR [octapeptide, mutation of […] with proline on position 2]”, the “ability to become myristoylated” value in assay [2] (mutation of octapeptide GNAAAARR to GPAAAARR, Towler et al. 1988) is reported as “loss of the ability to become myristoylated”.
For “GSSKSKPK [octapeptide substrate of yeast NMT]”, the Km in assay [2] (Rocque et al. 1993) was 105 µM; in assay [2] (setting [3]) it was 40 µM.

The values above are taken from patent US20030148383A1, “Methods for identifying proteins with N-terminal N-myristoylation” (Boehringer Ingelheim International GmbH, priority 2001, published 2003).
